Reference: US20240270846A1 (published 2024)
Changes are numbered by the printed parent chain. Names and notes keep the numbering of the source.

B1: GLS3000 N30E (Kabat) L chain altered form, one-arm antibody with CE115HA000 (antibody, human IgG1, kappa, L234A L235A, N297A, name in Kabat numbering)
heavy: QVQLVESGGGVVQPGRSLRLSCAASGFTFSNAWMHWVRQAPGKGLEWVAQIKAKSNNYATYYAESVKGRFTISRDDSKNSLYLQMNSLKTEDTAVYYCRYVHYGAYYGVDAWGQGTTVTVSSASTKGPSVFPLAPSSKSTSGGTAALGCLVKDYFPEPVTVSWNSGALTSGVHTFPAVLQSSGLYSLSSVVTVPSSSLGTQTYICNVNHKPSNTKVDKKVEPKSCDKTHTCPPCPAPEAAGGPSVFLFPPKPKDTLMISRTPEVTCVVVDVSHEDPEVKFNWYVDGVEVHNAKTKPREEQYASTYRVVSVLTVLHQDWLNGKEYKCKVSNKALPAPIEKTISKAKGQPREPQVYTLPPSRCELTKNQVSLSCAVKGFYPSDIAVEWESNGQPENNYKTTPPVLDSDGSFFLVSKLTVDKSRWQQGNVFSCSVMHEALHNHYTQKSLSLSPDYKDDDDK
chain: EPKSSDKTHTCPPCPAPELLGGPSVFLFPPKPKDTLMISRTPEVTCVVVDVSHEDPEVKFNWYVDGVEVHNAKTKPREEQYNSTYRVVSVLTVLHQDWLNGKEYKCKVSNKALPAPIEKTISKAKGQPREPQVCTLPPSRDELTKNQVSLWCLVKGFYPSDIAVEWESNGQPENNYKTTPPVLDSDGSFFLYSKLTVDKSRWQQGNVFSCSVMHEALHNRYTQKSLSLSP
light: DIVMTQSPLSLPVTPGEPASISCRSSQSLVHSNRETYLHWYQQKPGQAPRLLIYKVSNRFSGVPDRFSGSGSGTDFTLKISRVEAEDVGVYYCGQGTQVPYTFGQGTKLEIKRTVAAPSVFIFPPSDEQLKSGTASVVCLLNNFYPREAKVQWKVDNALQSGNSQESVTEQDSKDSTYSLSSTLTLSKADYEKHKVYACEVTHQGLSSPVTKSFNRGEC
notes: one-arm antibody
B2: GLS3000 Q27R (Kabat) L chain altered form, one-arm antibody with CE115HA000 (antibody, human IgG1, kappa, L234A L235A, N297A, name in Kabat numbering)
heavy: B1 heavy
chain: B1 chain
light: B1 light with Q27R, E35N
notes: one-arm antibody
B3: GLS3000 N30K (Kabat) L chain altered form, one-arm antibody with CE115HA000 (antibody, human IgG1, kappa, L234A L235A, N297A, name in Kabat numbering)
heavy: B1 heavy
chain: B1 chain
light: B1 light with E35K
notes: one-arm antibody
B4: GLS3000 N30I (Kabat) L chain altered form, one-arm antibody with CE115HA000 (antibody, human IgG1, kappa, L234A L235A, N297A, name in Kabat numbering)
heavy: B1 heavy
chain: B1 chain
light: B1 light with E35I
notes: one-arm antibody
B5: GLS3000 N30M (Kabat) L chain altered form, one-arm antibody with CE115HA000 (antibody, human IgG1, kappa, L234A L235A, N297A, name in Kabat numbering)
heavy: B1 heavy
chain: B1 chain
light: B1 light with E35M
notes: one-arm antibody
B6: GLS3000 Q27L (Kabat) L chain altered form, one-arm antibody with CE115HA000 (antibody, human IgG1, kappa, L234A L235A, N297A, name in Kabat numbering)
heavy: B1 heavy
chain: B1 chain
light: B1 light with Q27L, E35N
notes: one-arm antibody
B7: GLS3000 N30Q (Kabat) L chain altered form, one-arm antibody with CE115HA000 (antibody, human IgG1, kappa, L234A L235A, N297A, name in Kabat numbering)
heavy: B1 heavy
chain: B1 chain
light: B1 light with E35Q
notes: one-arm antibody
B8: GLS3000 N30V (Kabat) L chain altered form, one-arm antibody with CE115HA000 (antibody, human IgG1, kappa, L234A L235A, N297A, name in Kabat numbering)
heavy: B1 heavy
chain: B1 chain
light: B1 light with E35V
notes: one-arm antibody
B9: GLS3000 N30R (Kabat) L chain altered form, one-arm antibody with CE115HA000 (antibody, human IgG1, kappa, L234A L235A, N297A, name in Kabat numbering)
heavy: B1 heavy
chain: B1 chain
light: B1 light with E35R
notes: one-arm antibody
B10: GLS3000 R24A (Kabat) L chain altered form, one-arm antibody with CE115HA000 (antibody, human IgG1, kappa, L234A L235A, N297A, name in Kabat numbering)
heavy: B1 heavy
chain: B1 chain
light: B1 light with R24A, E35N
notes: one-arm antibody
B11: GLS3000 R24D (Kabat) L chain altered form, one-arm antibody with CE115HA000 (antibody, human IgG1, kappa, L234A L235A, N297A, name in Kabat numbering)
heavy: B1 heavy
chain: B1 chain
light: B1 light with R24D, E35N
notes: one-arm antibody
B12: GLS3000 N30L (Kabat) L chain altered form, one-arm antibody with CE115HA000 (antibody, human IgG1, kappa, L234A L235A, N297A, name in Kabat numbering)
heavy: B1 heavy
chain: B1 chain
light: B1 light with E35L
notes: one-arm antibody
B13: GLS3000 N30H (Kabat) L chain altered form, one-arm antibody with CE115HA000 (antibody, human IgG1, kappa, L234A L235A, N297A, name in Kabat numbering)
heavy: B1 heavy
chain: B1 chain
light: B1 light with E35H
notes: one-arm antibody
B14: GLS3000 Q27E (Kabat) L chain altered form, one-arm antibody with CE115HA000 (antibody, human IgG1, kappa, L234A L235A, N297A, name in Kabat numbering)
heavy: B1 heavy
chain: B1 chain
light: B1 light with Q27E, E35N
notes: one-arm antibody
B15: GLS3000 Q27P (Kabat) L chain altered form, one-arm antibody with CE115HA000 (antibody, human IgG1, kappa, L234A L235A, N297A, name in Kabat numbering)
heavy: B1 heavy
chain: B1 chain
light: B1 light with Q27P, E35N
notes: one-arm antibody
B16: GLS3000 N53A (Kabat) L chain altered form, one-arm antibody with CE115HA000 (antibody, human IgG1, kappa, L234A L235A, N297A, name in Kabat numbering)
heavy: B1 heavy
chain: B1 chain
light: B1 light with E35N, N58A
notes: one-arm antibody
B17: GLS3000 Q27D (Kabat) L chain altered form, one-arm antibody with CE115HA000 (antibody, human IgG1, kappa, L234A L235A, N297A, name in Kabat numbering)
heavy: B1 heavy
chain: B1 chain
light: B1 light with Q27D, E35N
notes: one-arm antibody
B18: GLS3000 N30S (Kabat) L chain altered form, one-arm antibody with CE115HA000 (antibody, human IgG1, kappa, L234A L235A, N297A, name in Kabat numbering)
heavy: B1 heavy
chain: B1 chain
light: B1 light with E35S
notes: one-arm antibody
B19: GLS3000 N30G (Kabat) L chain altered form, one-arm antibody with CE115HA000 (antibody, human IgG1, kappa, L234A L235A, N297A, name in Kabat numbering)
heavy: B1 heavy
chain: B1 chain
light: B1 light with E35G
notes: one-arm antibody
B20: GLS3000 N30P (Kabat) L chain altered form, one-arm antibody with CE115HA000 (antibody, human IgG1, kappa, L234A L235A, N297A, name in Kabat numbering)
heavy: B1 heavy
chain: B1 chain
light: B1 light with E35P
notes: one-arm antibody
B21: GLS3000 N30W (Kabat) L chain altered form, one-arm antibody with CE115HA000 (antibody, human IgG1, kappa, L234A L235A, N297A, name in Kabat numbering)
heavy: B1 heavy
chain: B1 chain
light: B1 light with E35W
notes: one-arm antibody
B22: GLS3000 N30Y (Kabat) L chain altered form, one-arm antibody with CE115HA000 (antibody, human IgG1, kappa, L234A L235A, N297A, name in Kabat numbering)
heavy: B1 heavy
chain: B1 chain
light: B1 light with E35Y
notes: one-arm antibody
B23: GLS3000 N30T (Kabat) L chain altered form, one-arm antibody with CE115HA000 (antibody, human IgG1, kappa, L234A L235A, N297A, name in Kabat numbering)
heavy: B1 heavy
chain: B1 chain
light: B1 light with E35T
notes: one-arm antibody

biological target: T1, CD3 epsilon homodimer protein (UniProt P07766 23-126); assay: SPR Biacore T200, CD3 epsilon homodimer immobilized; vs unaltered GLS3000;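 further: antibody variants flowed as analyte over CD3 epsilon homodimer amine-coupled to a CM4 chip, at 25 °C in HBS-EP+ running buffer, fitted with Biacore T200 Evaluation Software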
T1 construct: construct not described; homodimer as printed; also called CD3 (CD3 epsilon)
T1 sequence (P07766 23-126): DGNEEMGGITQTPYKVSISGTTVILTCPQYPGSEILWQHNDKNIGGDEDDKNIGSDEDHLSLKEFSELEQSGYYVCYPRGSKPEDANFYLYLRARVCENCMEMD

KD ratio to GLS3000 (Affinity up) | Binder
2.83 | B1
1.06 | B2
1.35 | B3
1.24 | B4
1.2 | B5
0.86 | B6
1 | B7
2.62 | B8
1.73 | B9
1 | B10
0.83 | B11
1.19 | B12
1.08 | B13
0.99 | B14
2.16 | B15
0.82 | B16
0.89 | B17
10.6 | B18
2.1 | B19
12.1 | B20
0.97 | B21
1.03 | B22
12.7 | B23
